Results published in publication PMC5153249.
Values joined by “and” are separate entries in the source; they are usually repeats but may differ in a detail not shown here. Identical values can stand only once.

Columns and labels:
[1] = target: 48S pre-initiation complex (40S, eIF1, eIF1A, ternary complex, AUG-containing model mRNA) (S. cerevisiae) (UniProt P32911); assay: other; 48S PIC, + mRNA
[2] = target: 43S pre-initiation complex (40S ribosomal subunit, eIF1, eIF1A and eIF2•GDPNP•Met-tRNAi ternary complex); called 48S PIC when AUG-containing model mRNA is added (yeast) (UniProt P32911); assay: other; 43S PIC, no mRNA
[3] = target: 43S pre-initiation complex (40S ribosomal subunit, eIF1, eIF1A and eIF2•GDPNP•Met-tRNAi ternary complex); called 48S PIC when AUG-containing model mRNA is added (yeast) (UniProt P32911); assay: native gel or EMSA; eIF3 (30-500 nM) titrated into 48S PICs: 1 µM uncapped AUG-containing model mRNA, 20 nM 40S, 1 µM eIF1, 1 µM eIF1A, 200 nM eIF2, 1 mM GDPNP•Mg2+, 2 nM [35S]-Met-tRNAi; 26 °C, 2 h; apparent KD from a Hill fit
[4] = target: 43S pre-initiation complex (40S ribosomal subunit, eIF1, eIF1A and eIF2•GDPNP•Met-tRNAi ternary complex); called 48S PIC when AUG-containing model mRNA is added (yeast) (UniProt P32911); assay: native gel or EMSA; eIF3 (30-500 nM) titrated into 43S PICs without mRNA: 30 nM 40S, 1 µM eIF1, 1 µM eIF1A, 200 nM eIF2, 1 mM GDPNP•Mg2+, 2 nM [35S]-Met-tRNAi; 1X Recon buffer (30 mM HEPES-KOH pH 7.4, 100 mM KOAc pH 7.6, 3 mM Mg(OAc)2, 2 mM DTT); 26 °C, 2 h; apparent KD from a Hill fit, free eIF3 corrected for free …
[5] = target: 43S pre-initiation complex (40S, eIF1, eIF1A, ternary complex; no mRNA) (S. cerevisiae) (UniProt P32911); assay: native gel or EMSA; gel shift monitoring [35S]-Met-tRNAi; 43S PICs without mRNA (1 µM eIF1, 1 µM eIF1A, 200 nM eIF2, 1 mM GDPNP•Mg2+, 2 nM Met-tRNAi, 30 nM 40S); eIF3 titrated 30-500 nM; 1X Recon buffer (30 mM HEPES-KOH pH 7.4, 100 mM KOAc, 3 mM Mg(OAc)2, 2 mM DTT), 26 °C, 2 h; apparent KD, Hill equation; single experiments; apparent affinities ≤ 30 nM likely upper limits
[6] = test system: yeast 43S PIC: 40S+eIF1+eIF1A+eIF2 (Met-tRNAi TC); for mRNA recruitment also eIF5, eIF4A, eIF4B, eIF4E-eIF4G (Saccharomyces cerevisiae); assay: EMSA; details: no eIF3; measurement 1; m7G cap; 30 mM HEPES-KOH pH 7.4, 100 mM KOAc, 3 mM Mg(OAc)2, 2 mM DTT, 1 mM GDPNP, 26 C, 2 h; native 4% THEM gel
[7] = test system: yeast 43S PIC: 40S+eIF1+eIF1A+eIF2 (Met-tRNAi TC); for mRNA recruitment also eIF5, eIF4A, eIF4B, eIF4E-eIF4G;eIF3 (a delta8) (Saccharomyces cerevisiae;Saccharomyces cerevisiae); assay: EMSA; details: measurement 1; m7G cap; 30 mM HEPES-KOH pH 7.4, 100 mM KOAc, 3 mM Mg(OAc)2, 2 mM DTT, 1 mM GDPNP, 26 C, 2 h; native 4% THEM gel
[8] = test system: yeast 43S PIC: 40S+eIF1+eIF1A+eIF2 (Met-tRNAi TC); for mRNA recruitment also eIF5, eIF4A, eIF4B, eIF4E-eIF4G;eIF3 WT (a/b/c/i/g) (Saccharomyces cerevisiae;Saccharomyces cerevisiae); assay: EMSA; details: measurement 1; m7G cap; 30 mM HEPES-KOH pH 7.4, 100 mM KOAc, 3 mM Mg(OAc)2, 2 mM DTT, 1 mM GDPNP, 26 C, 2 h; native 4% THEM gel
[9] = test system: yeast 43S PIC: 40S+eIF1+eIF1A+eIF2 (Met-tRNAi TC); for mRNA recruitment also eIF5, eIF4A, eIF4B, eIF4E-eIF4G;eIF3 (a Box37) (Saccharomyces cerevisiae;Saccharomyces cerevisiae); assay: EMSA; details: measurement 1; m7G cap; 30 mM HEPES-KOH pH 7.4, 100 mM KOAc, 3 mM Mg(OAc)2, 2 mM DTT, 1 mM GDPNP, 26 C, 2 h; native 4% THEM gel
[10] = test system: yeast 43S PIC: 40S+eIF1+eIF1A+eIF2 (Met-tRNAi TC); for mRNA recruitment also eIF5, eIF4A, eIF4B, eIF4E-eIF4G;eIF3 (a Box6) (Saccharomyces cerevisiae;Saccharomyces cerevisiae); assay: EMSA; details: measurement 1; m7G cap; 30 mM HEPES-KOH pH 7.4, 100 mM KOAc, 3 mM Mg(OAc)2, 2 mM DTT, 1 mM GDPNP, 26 C, 2 h; native 4% THEM gel
[11] = test system: yeast 43S PIC: 40S+eIF1+eIF1A+eIF2 (Met-tRNAi TC); for mRNA recruitment also eIF5, eIF4A, eIF4B, eIF4E-eIF4G;eIF3 (a H725P) (Saccharomyces cerevisiae;Saccharomyces cerevisiae); assay: EMSA; details: measurement 1; m7G cap; 30 mM HEPES-KOH pH 7.4, 100 mM KOAc, 3 mM Mg(OAc)2, 2 mM DTT, 1 mM GDPNP, 26 C, 2 h; native 4% THEM gel
[12] = test system: yeast 43S PIC: 40S+eIF1+eIF1A+eIF2 (Met-tRNAi TC); for mRNA recruitment also eIF5, eIF4A, eIF4B, eIF4E-eIF4G;eIF3 (a R731I) (Saccharomyces cerevisiae;Saccharomyces cerevisiae); assay: EMSA; details: measurement 1; m7G cap; 30 mM HEPES-KOH pH 7.4, 100 mM KOAc, 3 mM Mg(OAc)2, 2 mM DTT, 1 mM GDPNP, 26 C, 2 h; native 4% THEM gel
[13] = test system: yeast 43S PIC: 40S+eIF1+eIF1A+eIF2 (Met-tRNAi TC); for mRNA recruitment also eIF5, eIF4A, eIF4B, eIF4E-eIF4G;eIF3 (b prt1-1) (Saccharomyces cerevisiae;Saccharomyces cerevisiae); assay: EMSA; details: measurement 1; m7G cap; 30 mM HEPES-KOH pH 7.4, 100 mM KOAc, 3 mM Mg(OAc)2, 2 mM DTT, 1 mM GDPNP, 26 C, 2 h; native 4% THEM gel
[14] = test system: yeast 43S PIC: 40S+eIF1+eIF1A+eIF2 (Met-tRNAi TC); for mRNA recruitment also eIF5, eIF4A, eIF4B, eIF4E-eIF4G;eIF3 (b rnp1) (Saccharomyces cerevisiae;Saccharomyces cerevisiae); assay: EMSA; details: measurement 1; m7G cap; 30 mM HEPES-KOH pH 7.4, 100 mM KOAc, 3 mM Mg(OAc)2, 2 mM DTT, 1 mM GDPNP, 26 C, 2 h; native 4% THEM gel
[15] = test system: yeast 43S PIC: 40S+eIF1+eIF1A+eIF2 (Met-tRNAi TC); for mRNA recruitment also eIF5, eIF4A, eIF4B, eIF4E-eIF4G;eIF3 (c Box12-SPW) (Saccharomyces cerevisiae;Saccharomyces cerevisiae); assay: EMSA; details: measurement 1; m7G cap; 30 mM HEPES-KOH pH 7.4, 100 mM KOAc, 3 mM Mg(OAc)2, 2 mM DTT, 1 mM GDPNP, 26 C, 2 h; native 4% THEM gel
[16] = test system: yeast 43S PIC: 40S+eIF1+eIF1A+eIF2 (Met-tRNAi TC); for mRNA recruitment also eIF5, eIF4A, eIF4B, eIF4E-eIF4G;eIF3 (c GAP85) (Saccharomyces cerevisiae;Saccharomyces cerevisiae); assay: EMSA; details: measurement 1; m7G cap; 30 mM HEPES-KOH pH 7.4, 100 mM KOAc, 3 mM Mg(OAc)2, 2 mM DTT, 1 mM GDPNP, 26 C, 2 h; native 4% THEM gel
[17] = test system: yeast 43S PIC: 40S+eIF1+eIF1A+eIF2 (Met-tRNAi TC); for mRNA recruitment also eIF5, eIF4A, eIF4B, eIF4E-eIF4G;eIF3 (c delta60) (Saccharomyces cerevisiae;Saccharomyces cerevisiae); assay: EMSA; details: measurement 1; m7G cap; 30 mM HEPES-KOH pH 7.4, 100 mM KOAc, 3 mM Mg(OAc)2, 2 mM DTT, 1 mM GDPNP, 26 C, 2 h; native 4% THEM gel
[18] = test system: yeast 43S PIC: 40S+eIF1+eIF1A+eIF2 (Met-tRNAi TC); for mRNA recruitment also eIF5, eIF4A, eIF4B, eIF4E-eIF4G;eIF3 (g KLF) (Saccharomyces cerevisiae;Saccharomyces cerevisiae); assay: EMSA; details: measurement 1; m7G cap; 30 mM HEPES-KOH pH 7.4, 100 mM KOAc, 3 mM Mg(OAc)2, 2 mM DTT, 1 mM GDPNP, 26 C, 2 h; native 4% THEM gel
[19] = test system: yeast 43S PIC: 40S+eIF1+eIF1A+eIF2 (Met-tRNAi TC); for mRNA recruitment also eIF5, eIF4A, eIF4B, eIF4E-eIF4G;eIF3 (i Q258R) (Saccharomyces cerevisiae;Saccharomyces cerevisiae); assay: EMSA; details: measurement 1; m7G cap; 30 mM HEPES-KOH pH 7.4, 100 mM KOAc, 3 mM Mg(OAc)2, 2 mM DTT, 1 mM GDPNP, 26 C, 2 h; native 4% THEM gel
[20] = test system: yeast 43S PIC: 40S+eIF1+eIF1A+eIF2 (Met-tRNAi TC); for mRNA recruitment also eIF5, eIF4A, eIF4B, eIF4E-eIF4G;eIF3 a/b/c sub-complex (Saccharomyces cerevisiae;Saccharomyces cerevisiae); assay: EMSA; details: measurement 1; m7G cap; 30 mM HEPES-KOH pH 7.4, 100 mM KOAc, 3 mM Mg(OAc)2, 2 mM DTT, 1 mM GDPNP, 26 C, 2 h; native 4% THEM gel
[21] = target: 48S pre-initiation complex (40S, eIF1, eIF1A, ternary complex, AUG-containing model mRNA) (S. cerevisiae) (UniProt P32911); assay: native gel or EMSA; gel shift monitoring [35S]-Met-tRNAi; 48S PICs with 1 µM uncapped AUG-containing model mRNA (1 µM eIF1, 1 µM eIF1A, 200 nM eIF2, 1 mM GDPNP•Mg2+, 2 nM Met-tRNAi, 20 nM 40S); eIF3 titrated 30-500 nM; 1X Recon buffer, 26 °C, 2 h; apparent KD, Hill equation; single experiments; apparent affinities ≤ 30 nM likely upper limits

eIF3a/b/c sub-complex lacking the i and g subunits (eIF3 purified from eIF3i DDKK cells) (from UniProt P38249 1-964; P06103 1-763; P32497 1-812)
Kd [1]: 109 nM | Kd [2]: 90 nM | fold decrease of apparent affinity against WT eIF3 [3]: 3 fold | fold decrease of apparent affinity against WT eIF3 [4]: 2 fold

eIF3 (wild type) (from UniProt P38249 1-964; P06103 1-763; P32497 1-812; P40217 1-347; Q04067 1-274) (complex)
Kd [5]: 43 nM and 24 nM

3'17-AUG model mRNA
binding signal [6]: 71.4 % recruited | binding signal [7]: 89.9 % recruited | binding signal [8]: 97.2 % recruited

5'5-AUG model mRNA
binding signal [6]: 68.2 % recruited | binding signal [9]: 82.5 % recruited | binding signal [10]: 62.5 % recruited | binding signal [11]: 58.2 % recruited | binding signal [12]: 57.7 % recruited | binding signal [7]: 91.7 % recruited | binding signal [13]: 79.9 % recruited | binding signal [14]: 69.4 % recruited | binding signal [15]: 85.3 % recruited | binding signal [16]: 80.1 % recruited | binding signal [17]: 87.9 % recruited | binding signal [18]: 84.7 % recruited | binding signal [19]: 80.3 % recruited | binding signal [8]: 84.1 % recruited | binding signal [20]: 32.1 % recruited

eIF3 variant R731I (eIF3a/Tif32 CTD) (from UniProt P38249 1-964; P06103 1-763; P32497 1-812; P40217 1-347; Q04067 1-274) (complex)
Kd [5]: 126 nM

eIF3a/b/c sub-complex lacking the i and g subunits (from UniProt P38249 1-964; P06103 1-763; P32497 1-812)
Kd [21]: 106 nM and 111 nM | Kd [5]: 87 nM and 98 nM
